According to patent US20260070994A1 (PASSION TECHNOLOGY ZHUHAI PARTNERSHIP LIMITED PARTNERSHIP, published 2026):
Like-named read-outs stand apart in the source and are kept apart here.

T1: CD25 on the CHO-CD25-overexpressing cell line (human, UniProt P01589 22-272)
T1 chain: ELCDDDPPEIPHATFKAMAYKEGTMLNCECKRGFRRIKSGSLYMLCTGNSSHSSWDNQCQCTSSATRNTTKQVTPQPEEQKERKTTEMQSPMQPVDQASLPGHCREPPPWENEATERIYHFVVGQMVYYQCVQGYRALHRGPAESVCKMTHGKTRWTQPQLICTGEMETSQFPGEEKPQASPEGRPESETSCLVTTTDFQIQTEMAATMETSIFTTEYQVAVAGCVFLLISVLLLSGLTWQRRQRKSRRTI

T2: CD25-His recombinant protein (human, UniProt P01589 22-240)
T2 chain: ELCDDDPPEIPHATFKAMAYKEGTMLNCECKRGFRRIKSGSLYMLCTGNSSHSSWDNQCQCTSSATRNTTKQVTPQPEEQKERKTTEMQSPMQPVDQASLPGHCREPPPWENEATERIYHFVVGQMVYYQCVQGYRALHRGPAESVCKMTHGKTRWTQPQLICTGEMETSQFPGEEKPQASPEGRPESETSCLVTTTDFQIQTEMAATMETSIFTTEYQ

T3: CD25 on the CHO-CD25-overexpressing cell line (human, UniProt P01589 22-272)
T3 sequence (looked up): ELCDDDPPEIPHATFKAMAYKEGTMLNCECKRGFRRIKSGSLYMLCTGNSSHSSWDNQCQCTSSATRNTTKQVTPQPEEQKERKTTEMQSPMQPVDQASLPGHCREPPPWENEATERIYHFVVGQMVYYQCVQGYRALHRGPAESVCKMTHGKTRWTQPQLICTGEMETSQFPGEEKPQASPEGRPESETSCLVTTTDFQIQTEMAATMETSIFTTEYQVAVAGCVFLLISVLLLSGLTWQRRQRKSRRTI

T4: CD25-His recombinant protein (human, UniProt P01589 22-240, limits assumed)
T4 construct: Recombinant antigen made by the applicant; also called CD25-His antigen; CD25 antigen; not shown: His tag
T4 sequence (looked up): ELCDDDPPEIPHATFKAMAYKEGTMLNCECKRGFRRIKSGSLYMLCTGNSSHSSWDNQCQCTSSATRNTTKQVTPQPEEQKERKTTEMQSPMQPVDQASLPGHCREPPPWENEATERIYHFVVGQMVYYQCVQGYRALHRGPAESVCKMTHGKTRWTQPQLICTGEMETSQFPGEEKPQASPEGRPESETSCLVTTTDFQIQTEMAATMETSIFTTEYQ


Columns and labels:
[1] = molecular target: T1, CD25 on the CHO-CD25-overexpressing …; test: FACS
[2] = molecular target: T2, CD25-His recombinant protein; test: ELISA
[3] = molecular target: T3, CD25 on the CHO-CD25-overexpressing …; test: cell-based or functional assay
[4] = molecular target: T1, CD25 on the CHO-CD25-overexpressing …; test: FACS
[5] = molecular target: T2, CD25-His recombinant protein; test: BLI
[6] = molecular target: T4, CD25-His recombinant protein; test: ELISA on human CD25 antigen, antibody 10 µg/ml
[7] = molecular target: T4, CD25-His recombinant protein; test: ELISA on human CD25 antigen, antibody 0.016 µg/ml
[8] = molecular target: T4, CD25-His recombinant protein; test: ELISA on CD25 antigen, transfection supernatant 5 µL
Procedure: The CD25-His protein was coated on a 96-well microplate. After the candidate antibodies were transiently transfected into 293F cells for 48 hours, the supernatant was collected and ELISA detection was performed.

Row | Binder | EC50 [1] | EC50 [2] | further results
1 | D01 (VHH) VHH: QVQLVESGGGLAQPGGSLRLSCAASGFTFSNFAVSWARQVAGEGFEWVSGVYSDGDTYYADSVKDRFIISRDNAKNTLYLQMNSLKPEDTALYYCGAARGRLCSSIMTCDYWGQGTQVTVSS | 1.27 µg/mL | 0.0261 µg/mL | –
2 | E08 (VHH) VHH: AVQLVESGGGLVQPGGSLRLSCAASGFTFSSYPMGWYRQAPGEECELVAGITSAGGSTNYADSVKGRFTISRDNAKNTVYLQMNSLKPEDTAVYYCNTDPRYYTDSRGPCSWGQGTQVTVSS | 1.14 µg/mL | 0.00875 µg/mL | –
3 | A07-HM5 (VHH) VHH: EVQLVESGGGLVQPGGSLRLSCAVSGFTLDYYAIGWFRQAPGKGLEGVSCISGSDGRTAYADSVKGRFTISKDNAKNTVYLQMNSLRAEDTAVYYCAADPGYYCAGEVRYAGSLYDYWGQGTLVTVSS | – | – | ADCC EC50 [3]: 0.0074 µg/mL; EC50 [4]: 0.632 µg/mL; Kd [5]: 9.62 nM
4 | clone A07 (VHH, Recombinant antibody from a eukaryotic expression vector (293F); also called A-A7; A-A07-VHH) VHH: EVQLVESGGGLAQPGGSLRLSCAVSGFTLDYYAIGWFRQAPGKEREGVSCISGSDGRTAYTDSVKGRFTISKDNAKNTVYLQMNSLKPEDTAVYYCAADPGYYCAGEVRYAGSLYDYWGQGTQVTVSS | 2.8 µg/mL | 0.0559 µg/mL | ADCC EC50 [3]: 0.0186 µg/mL; EC50 [4]: 0.399 µg/mL; ELISA OD [6]: 4.39; Kd [5]: 6.67 nM; ELISA OD [7]: 0.2
5 | A07-HM6 (VHH) VHH: EVQLLESGGGLVQPGGSLRLSCAVSGFTLDYYAIGWFRQAPGKGLEGVSCISGSDGRTAYGDSVKGRFTISKDNAKNTVYLQMNSLRAEDTAVYYCAADPGYYCAGEVRYAGSLYDYWGQGTLVTVSS | – | – | ADCC EC50 [3]: 0.0047 µg/mL; EC50 [4]: 0.772 µg/mL; Kd [5]: 14.6 nM
6 | A05 (VHH) VHH: QVQLVESGGGLAQPGGSLRLSCAASGFTFSIYAMSWARQAPGKGLEWVSGIYSDSSYTYYADSVKGRFTISRDNAKNTLYLQMNSLKPEDTALYYCLKARGSGSYYPFDDYRGQGTQVTVSS | 1.59 µg/mL | 0.0177 µg/mL | –
7 | B04 (VHH) VHH: QVQLVESGGGLVQPGGSLRLSCATSGFTLDYYAIGWFRQAPGKEREGVSCISSSDGTTAYADSVKGRFTISTDNARNTVYLQMNSLKPEDTAVYYCAADLGYYCADNVRYAGSLYDYWGQGTQVTVSS | 7.02 µg/mL | 0.164 µg/mL | –
8 | B10 (VHH, Tested as transfection supernatant) VHH: EVQLVESGGGLVQPGGSLRLSCAVFGVTLDSYAIGWFRQAPGKEREGVSCISTSDGRTWETDAVLGRFTISRDNAKNTVYLQMNDLKPEDTAVYYCGADGRDWCSAHVYSRYEYDYSGQGTQVTVSS | – | – | ELISA OD [8]: 4.38
9 | G10 (VHH) VHH: DVQLVESGGGLAQPGGSLRLSCAASGFTFSNYAMNWLRQAPGKGLEWVSGIYSDSSGTYYADSVKGRFTISRDNAKNTLYLQMNSLKPEDTALYYCAKASNSGSYYPWDDDWGQGTQVTVSA | 1.88 µg/mL | 0.0193 µg/mL | –
10 | D04 (VHH) VHH: QVQLVESGGGLVQPGGSLRLSCAASGFTFSSSAVSWARLTPGKRLEWVSAIASDGSTYYADSMQGRFTISRDNAKNTVYLQMNSLKPEDTAVYYCAIPRDGLVPVFGIDYWGQGTQVTVSS | – | 0.0281 µg/mL | –
11 | A11 (VHH) VHH: DVQLVESGGGLVQPGGSLRLSCAASGFTFSSYAMSWYRQAPGKERELVAYITTSPGYTTYTDSVKGRFTISRDNAKNTVYLQMNSLKPDDTAVYYCNAWRGAPRGDYWGQGTQVTVSS | 2.8 µg/mL | 0.0128 µg/mL | –
